One assay addresses rat GLP-1-R (rat) (UniProt P32301). In words: cell-based or functional assay.
Assay [1] concerns the target human Gcg receptor (human) (UniProt P47871). In words: cell-based or functional assay.

Chain of human Gcg receptor (human) (P47871 26-477): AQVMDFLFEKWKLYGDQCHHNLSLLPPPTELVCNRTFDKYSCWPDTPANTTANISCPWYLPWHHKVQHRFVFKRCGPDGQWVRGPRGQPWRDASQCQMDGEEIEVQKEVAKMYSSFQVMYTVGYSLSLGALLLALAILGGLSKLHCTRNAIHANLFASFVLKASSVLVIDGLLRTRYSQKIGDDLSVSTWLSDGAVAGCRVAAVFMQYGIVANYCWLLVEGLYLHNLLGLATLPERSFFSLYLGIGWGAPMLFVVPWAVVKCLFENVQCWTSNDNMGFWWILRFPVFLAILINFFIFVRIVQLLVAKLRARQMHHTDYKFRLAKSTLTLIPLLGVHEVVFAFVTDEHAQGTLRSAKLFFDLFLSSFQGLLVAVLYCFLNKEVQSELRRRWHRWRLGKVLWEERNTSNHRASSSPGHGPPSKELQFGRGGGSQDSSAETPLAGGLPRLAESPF
Chain of Wild type human OXM (ligand) (peptide): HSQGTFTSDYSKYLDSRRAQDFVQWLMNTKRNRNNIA

As to Semaglutide (peptide), the Emax (%), cAMP production in INS1 832-3 cells in the assay with rat GLP-1-R (rat) is 107%.

As for Wild type human OXM (ligand), in assay [1], the Emax (%), cAMP production in primary human hepatocytes stood at 90%.
